Experimental data taken from patent US20240374719A1 (BIOINVENT INTERNATIONAL, published 2024).
One block for each binder: values may come before it.

Key:
[1] = biological target: T1, mouse CTLA4-Fc (Sino Biological) (mouse, UniProt P09793 36-162, limits assumed); assay: ligand-blocking ELISA: mouse CTLA4-Fc coated, antibody titrated, His-tagged mouse CD86 added and detected with anti-His-HRP [contd.) J, panel mCD86]
T1 construct: Bought reagent; also called mouse CTLA-4 protein; recombinant CTLA-4; not shown: Fc part of the bought fusion protein; not described

[2] = biological target: T1, mouse CTLA4-Fc (Sino Biological); assay: ELISA, luminescence: mouse CTLA4-Fc coated, 5-B07 mIgG2a titrated in 3-fold steps [contd.) E]
[3] = biological target: T1, mouse CTLA4-Fc (Sino Biological); assay: ligand-blocking ELISA: mouse CTLA4-Fc coated, antibody titrated, His-tagged mouse CD80 added and detected with anti-His-HRP [contd.) J, panel mCD80]
[4] = biological target: T2, mouse CTLA-4 on transfected cells (mouse, UniProt P09793 36-223); assay: flow cytometry on mCTLA-4-transfected cells, antibody titrated [contd.) I]
T2 construct: whole, on cells; also called mCTLA-4-transfected cells; mouse CTLA-4 transfected CHO cells

[5] = biological target: T3, cmCTLA-4 (Macaca fascicularis, UniProt G7PL88); assay: ELISA, luminescence: antigen coated, antibody titrated [contd.) E]
T3 construct: recombinant protein coated for ELISA; also called cynomolgus CTLA-4; cynomolgus monkey CTLA-4

[6] = biological target: T4, human CTLA4-Fc (R&D Systems) (human, UniProt P16410 36-161); assay: by the legend: binding to immobilized recombinant hCTLA-4 protein as in FIG. 1E; 4-E03 purified from BT-001-infected MIA PaCa-2 cells; the y axis reads 'IgG binding (geomean; x10^3)' [contd.) G]
T4 construct: extracellular domain; Bought reagent; also called rhCTLA-4-Fc; hCTLA-4; not shown: Fc part of the bought fusion protein; not described

[7] = biological target: T4, human CTLA4-Fc (R&D Systems); assay: ligand-blocking ELISA: human CTLA4-Fc coated, antibody titrated, His-tagged rhCD86 added and detected with anti-His-HRP [contd.) G, panel hCD86]
[8] = biological target: T5, human CTLA-4 protein (Sino Biological), soluble (human, UniProt P16410 36-162, limits assumed); assay: SPR (Biacore): antibody at 5 nM captured on immobilized anti-human Fc, human CTLA-4 protein injected at rising concentrations [contd.) C, upper panel]
T5 construct: Analyte of the Biacore experiment; also called soluble human CTLA-4

[9] = biological target: T6, human CD28-Fc (R&D Systems) (human, UniProt P10747 19-152); assay: ELISA, luminescence: antigen coated, antibody titrated [contd.) E]
T6 construct: Bought reagent; also called human homologue CD28; not shown: Fc part of the bought fusion protein; not described

[10] = biological target: T1, mouse CTLA4-Fc (Sino Biological); assay: as above
[11] = biological target: T4, human CTLA4-Fc (R&D Systems); assay: as above
[12] = biological target: T5, human CTLA-4 protein (Sino Biological), …; assay: SPR (Biacore 3000); mAb captured by immobilised anti-human Fc, soluble human CTLA-4 injected (1.6 to 50 nM)
[13] = biological target: T4, human CTLA4-Fc (R&D Systems); assay: ligand-blocking ELISA: human CTLA4-Fc coated, antibody titrated, His-tagged rhCD80 added and detected with anti-His-HRP [contd.) G, panel hCD80]
[14] = biological target: T4, human CTLA4-Fc (R&D Systems); assay: by the legend: binding to immobilized recombinant hCTLA-4 protein as in FIG. 1E; the y axis reads 'IgG binding (geomean; x10^3)' [contd.) G]

T4 sequence (P16410 36-161): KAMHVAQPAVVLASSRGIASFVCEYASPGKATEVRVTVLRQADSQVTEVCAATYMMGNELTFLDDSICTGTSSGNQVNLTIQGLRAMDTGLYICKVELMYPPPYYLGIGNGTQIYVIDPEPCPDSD
T5 sequence (P16410 36-162 limits assumed): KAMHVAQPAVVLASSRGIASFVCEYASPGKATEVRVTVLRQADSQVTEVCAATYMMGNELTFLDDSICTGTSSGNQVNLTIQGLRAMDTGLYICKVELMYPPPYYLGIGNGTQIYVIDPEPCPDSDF
T3 sequence (G7PL88 entry or part of it): as the sequence (P16410 36-161) above, with S14N, I18T, L106M counted along it

B1: 5-B07 mIgG2a (anti-mouse CTLA-4, mouse IgG2a) (antibody, V domains shown)
VH: EVQLLESGGGLVQPGGSLRLSCAASGFTFSSYSMNWVRQAPGKGLEWVSAISGSGGSTYYADSVKGRFTISRDNSKNTLYLQMNSLRAEDTAVYYCARDRVEMNQWLADWGQGTLVTVSS
VL: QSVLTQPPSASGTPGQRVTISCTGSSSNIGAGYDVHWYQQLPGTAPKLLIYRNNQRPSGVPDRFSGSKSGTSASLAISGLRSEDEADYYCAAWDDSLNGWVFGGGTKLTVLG
notes: The protein in the assay lacks the signal peptide; also called anti-mCTLA-4 (5-B07); mouse surrogate antibody 5-B07 mIgG2a
IC50 (read off the curve) [1]: ~0.6 nM
EC50 (read off the curve) [2]: ~0.7 nM
IC50 (read off the curve) [3]: ~2 nM
EC50 (read off the curve) [4]: ~0.8 µg/mL

B2: ipilimumab (antibody, V domains shown)
VH: QVQLVESGGGVVQPGRSLRLSCAASGFTFSSYTMHWVRQAPGKGLEWVTFISYDGNNKYYADSVKGRFTISRDNSKNTLYLQMNSLRAEDTAIYYCARTGWLGPFDYWGQGTLVTVSS
VL: not shown
EC50 (read off the curve) [5]: ~0.2 nM

Further lines, results first:

EC50 (read off the curve) [6]: ~4 nM
EC50 (read off the curve) [5]: ~0.3 nM
IC50 (read off the curve) [7]: ~0.4 nM
Kd [8]: 0.4 nM
binding result [9]: no binding (tested: about 20 nM)
binding result [10]: binds
EC50 (read off the curve) [11]: ~0.3 nM
Kd [12]: 0.6 nM
IC50 (read off the curve) [13]: ~1 nM
EC50 (read off the curve) [14]: ~6 nM
B3: 4-E03 hIgG1 (anti-human CTLA-4, human IgG1) (antibody, V domains shown)
VH: EVQLLESGGGLVQPGGSLRLSCAASGFTFSDYYMSWVRQAPGKGLEWVSGISWSSRDKGYADSVKGRFTISRDNSKNTLYLQMNSLRAEDTAVYYCTTDLARYWGQGTLVTVSS
VL: QSVLTQPPSASGTPGQRVTISCTGSSSNIGAGYDVHWYQQLPGTAPKLLIYGNDNRPSGVPDRFSGSKSGTSASLAISGLRSEDEADYYCAVWDDSLNGVVFGGGTKLTVLG
notes: Human IgG1 lambda, recombinant (HEK 293 EBNA); also called 4-E03 IgG1; anti-hCTLA-4 (4-E03)

IC50 (read off the curve) [7]: ~0.4 nM
IC50 (read off the curve) [13]: ~1 nM
B4: 2-C06 (anti-human CTLA-4 antibody clone) (antibody, human IgG1, V domains shown)
VH: EVQLLESGGGLVQPGGSLRLSCAASGFTFSSYAMSWVRQAPGKGLEWVSGISGSGGYIHYADSVKGRFTISRDNSKNTLYLQMNSLRAEDTAVYYCATYSSGLHDAFDIWGQGTLVTVSS
VL: QSVLTQPPSASGTPGQRVTISCTGSSSNIGAGYDVHWYQQLPGTAPKLLIYDNNKRPSGVPDRFSGSKSGTSASLAISGLRSEDEADYYCAAWDDSLNGWVFGGGTKLTVLG
notes: Tested as human IgG1 (lambda light chain)
